Biological target: recombinant K18 tau K311Q (acetylation-mimic) (human)
Assay: Thioflavin T fluorescence of heparin-induced aggregation; 10 μM K18 tau, 100 mM sodium acetate pH 7.0, 2 mM DTT, 10 μM heparin, 37 °C; 10 μM ThT, 430 nm excitation and 500 nm emission

recombinant K18 tau K311Q (acetylation-mimic) (domain or fragment)
fold increase in ThT-positive fibrils against WT or K311R: 3 fold
